Measured values taken from the supplement of paper PMC11316812.
± gives the standard deviation of the averaged measurements.

Tests used:
[1] = tested on: hTERT-HMEC; test: percentage of EdU-negative (G0-arrested) nuclei per well, 72 h; higher = more G0 arrest; details: reference: sequence is the full UniProt precursor, the tested protein was the secreted form or ectodomain
[2] = tested on: MCF7; test: as above; details: reference: sequence is the full UniProt precursor, the tested protein was the secreted form or ectodomain
[3] = protein concentration 0.0225 µM
[4] = protein concentration 0.02657 µM
[5] = protein concentration 0.2657 µM
[6] = protein concentration 0.03125 µM
[7] = protein concentration 0.3125 µM
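Also: secreted proteins added to cultured cells, EdU pulse at the end, nuclei found by Hoechst imaging, EdU status from nuclear versus surrounding ring intensity ratio, PBS as neutral control.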

Sequence | percentage of EdU-negative [1, 3] [%] | percentage of EdU-negative ([1]; protein concentration 0.225 µM) [%] | percentage of EdU-negative [2, 3] [%] | percentage of EdU-negative ([2]; protein concentration 0.225 µM) [%] | also measured
MGPLPVCLPIMLLLLLPSLLLLLLLPGPGSGEASRILRVHRRGILELAGTVGCVGPRTPIAYMKYGCFCGLGGHGQPRDAIDWCCHGHDCCYTRAEEAGCSPKTERYSWQCVNQSVLCGPAENKCQELLCKCDQEIANCLAQTEYNLKYLFYPQFLCEPDSPKCD | 7.05 ± 0.95 | 10.3 ± 2.1 | 29.3 ± 2.5 | 31.17 ± 0.13 | 
MFTIKLLLFIVPLVISSRIDQDNSSFDSLSPEPKSRFAMLDDVKILANGLLQLGHGLKDFVHKTKGQINDIFQKLNIFDQSFYDLSLQTSEIKEEEKELRRTTYKLQVKNEEVKNMSLELNSKLESLLEEKILLQQKVKYLEEQLTNLIQNQPETPEHPEVTSLKTFVEKQDNSIKDLLQTVEDQYKQLNQQHSQIKEIENQLRRTSIQEPTEISLSSKPRAPRTTPFLQLNEIRNVKHDGIPAECTTIYNRGEHTSGMYAIRPSNSQVFHVYCDVISGSPWTLIQHRIDGSQNFNETWENYKYGFGRLDGEFWLGLEKIYSIVKQSNYVLRIELEDWKDNKHYIEYSFYLGNHETNYTLHLVAITGNVPNAIPENKDLVFSTWDHKAKGHFNCPEGYSGGWWWHDECGENNLNGKYNKPRAKSKPERRRGLSWKSQNGRLYSIKSTKMLIHPTDSESFE [Q9Y5C1] |  |  |  |  | percentage of EdU-negative [1, 4]: 4.63 ± 0.83%; percentage of EdU-negative [1, 5]: 6.34 ± 0.5%; percentage of EdU-negative [2, 4]: 25.5 ± 1.9%; percentage of EdU-negative [2, 5]: 25.9 ± 2.1%
MSLVLLSLAALCRSAVPREPTVQCGSETGPSPEWMLQHDLIPGDLRDLRVEPVTTSVATGDYSILMNVSWVLRADASIRLLKATKICVTGKSNFQSYSCVRCNYTEAFQTQTRPSGGKWTFSYIGFPVELNTVYFIGAHNIPNANMNEDGPSMSVNFTSPGCLDHIMKYKKKCVKAGSLWDPNITACKKNEETVEVNFTTTPLGNRYMALIQHSTIIGFSQVFEPHQKKQTRASVVIPVTGDSEGATVQLTPYFPTCGSDCIRHKGTVVLCPQTGVPFPLDNNKSKPGGWLPLLLLSLLVATWVLVAGIYLMWRHERIKKTSFSTTTLLPPIKVLVVYPSEICFHHTICYFTEFLQNHCRSEVILEKWQKKKIAEMGPVQWLATQKKAADKVVFLLSNDVNSVCDGTCGKSEGSPSENSQDLFPLAFNLFCSDLRSQIHLHKYVVVYFREIDTKDDYNALSVCPKYHLMKDATAFCAELLHVKQQVSAGKRSQACHDGCCSL [Q9NRM6] | 4.78 ± 0.46 | 5.29 ± 0.1 | 25.3 ± 1.3 | 26.76 ± 0.21 | 
MAAAVVLAAGLRAARRAVAATGVRGGQVRGAAGVTDGNEVAKAQQATPGGAAPTIFSRILDKSLPADILYEDQQCLVFRDVAPQAPVHFLVIPKKPIPRISQAEEEDQQLLGHLLLVAKQTAKAEGLGDGYRLVINDGKLGAQSVYHLHIHVLGGRQLQWPPG [Q9BX68] | 4.56 ± 0.51 | 5.01 ± 0.41 | 24.7 ± 1.1 | 26.8 ± 0.95 | 
MKVSVAALSCLMLVTALGSQARVTKDAETEFMMSKLPLENPVLLDRFHATSADCCISYTPRSIPCSLLESYFETNSECSKPGVIFLTKKGRRFCANPSDKQVQVCMRMLKLDTRIKTRKN | 4.81 ± 0.43 | 5.12 ± 0.82 | 22.9 ± 1.3 | 24.7 ± 1.1 | 
MSCPVPACCALLLVLGLCRARPRNALLLLADDGGFESGAYNNSAIATPHLDALARRSLLFRNAFTSVSSCSPSRASLLTGLPQHQNGMYGLHQDVHHFNSFDKVRSLPLLLSQAGVRTGIIGKKHVGPETVYPFDFAYTEENGSVLQVGRNITRIKLLVRKFLQTQDDRPFFLYVAFHDPHRCGHSQPQYGTFCEKFGNGESGMGRIPDWTPQAYDPLDVLVPYFVPNTPAARADLAAQYTTVGRMDQGVGLVLQELRDAGVLNDTLVIFTSDNGIPFPSGRTNLYWPGTAEPLLVSSPEHPKRWGQVSEAYVSLLDLTPTILDWFSIPYPSYAIFGSKTIHLTGRSLLPALEAEPLWATVFGSQSHHEVTMSYPMRSVQHRHFRLVHNLNFKMPFPIDQDFYVSPTFQDLLNRTTAGQPTGWYKDLRHYYYRARWELYDRSRDPHETQNLATDPRFAQLLEMLRDQLAKWQWETHDPWVCAPDGVLEEKLSPQCQPLHNEL | 5.35 ± 1.4 | 7.84 ± 0.29 | 28.4 ± 3.8 | 26.4 ± 0.34 | 
MAKVFSFILVTTALTMGREISALEDCAQEQMRLRAQVRLLETRVKQQQVKIKQLLQENEVQFLDKGDENTVIDLGSKRQYADCSEIFNDGYKLSGFYKIKPLQSPAEFSVYCDMSDGGGWTVIQRRSDGSENFNRGWKDYENGFGNFVQKHGEYWLGNKNLHFLTTQEDYTLKIDLADFEKNSRYAQYKNFKVGDEKNFYELNIGEYSGTAGDSLAGNFHPEVQWWASHQRMKFSTWDRDHDNYEGNCAEEDQSGWWFNRCHSANLNGVYYSGPYTAKTDNGIVWYTWHGWWYSLKSVVMKIRPNDFIPNVI |  |  |  |  | percentage of EdU-negative [1, 6]: 6.18 ± 1.3%; percentage of EdU-negative [1, 7]: 5.22 ± 0.14%; percentage of EdU-negative [2, 6]: 24.5 ± 4.1%; percentage of EdU-negative [2, 7]: 22.8 ± 2.3%
